Test results from patent publication US12187807B2, “Antibody molecules to C5AR1 and uses thereof” (Visterra, Inc., priority 2020, dated 2025).
Substitutions are numbered along the chain they refer to. Values belong to the molecule of their own block, whether it stands above or below them.

Columns and labels:
[1] = oral administration, human C5aR1 transgenic mice; cited from earlier work
C5aR1 = biological target: T1, C5aR1 (Homo sapiens, UniProt P21730); conditions: cited from earlier work
T1 sequence (P21730 1-350): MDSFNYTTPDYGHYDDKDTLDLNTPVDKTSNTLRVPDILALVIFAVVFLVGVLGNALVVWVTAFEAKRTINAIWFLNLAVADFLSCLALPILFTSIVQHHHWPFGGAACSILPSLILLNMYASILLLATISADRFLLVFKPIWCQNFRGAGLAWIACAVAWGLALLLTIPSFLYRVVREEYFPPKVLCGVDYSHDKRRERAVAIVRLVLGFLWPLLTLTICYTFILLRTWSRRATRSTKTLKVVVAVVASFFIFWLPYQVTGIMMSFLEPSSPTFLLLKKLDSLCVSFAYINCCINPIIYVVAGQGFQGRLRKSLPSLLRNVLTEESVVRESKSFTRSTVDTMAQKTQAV

[2] = biological target: T2, human C5aR1 transiently expressed on the surface of Expi293 cells (Homo sapiens, UniProt P21730, K279N); test: Cell surface binding (flow cytometry), Expi293 cells transiently expressing human C5aR1; conditions: staining with 100 nM of antibody
T2 construct: expressed in transfected cells; host or cells: Expi293 cells, transient
T2 sequence (P21730 with tags, fused parts or gaps K279N limits assumed): T1 sequence (P21730 1-350) with D2N, K279N
Procedure: (§1) Follow up screening to ensure specificity was performed by measuring cell surface binding to cells expressing, for example, human C5aR1, human C5aR2, mouse C5aR1, and control cells that were mock transfected. Briefly, cell surface binding was performed on various C5aR1 expressing cell lines (transiently expressed Expi293 cells, stable C5aR1-U937 cells, and neutrophils isolated from whole blood). Briefly, a titration of antibody diluted in flow buffer (1×PBS with 2% fetal bovine serum) was incubated with cells for 1 hour at 4° C. Cells were washed twice with flow buffer. Anti-human-APC secondary antibody was diluted 1:400 in flow buffer and incubated with cells for 30 minutes. Cells were washed twice with flow buffer and resuspended in 100 μL of flow buffer. Fluorescence was measured using the iQue Screen Plus flow cytometer.

[3] = test system: control cells that were mock transfected; test: Cell surface binding (flow cytometry), mock transfected Expi293 control cells; conditions: staining with 100 nM of antibody
Procedure: as §1

Molecule: Cc1ccc(NC(=O)[C@H]2CCCN(C(=O)c3c(C)cccc3F)[C@H]2c2ccc(NC3CCCC3)cc2)cc1C(F)(F)F [Avacopan, avacopan]
- severity of anti-MPO NCGN [1]: reduced the severity of anti-MPO NCGN

B1: C5a: complement component 5a, agonist of C5aR1 (protein, UniProt P01031 678-751, looked up)
C5a anaphylatoxin: TLQKKIEEIAAKYKHSVVKKCCYDGACVNNDETCEQRAARISLGPRCIKAFTECCVVASQLRANISHKDMQLGR
modifications: C5a anaphylatoxin
notes: complement component 5a, agonist of C5aR1
- on rate for C5aR1 (C5aR1): about 4.8e8 M^−1min^−1

- Cell surface binding, Human C5aR1, geometric mean fluorescent intensity [2]: 310,187
B2: Clone_11v2 (antibody, V domains shown)
VH: QVQLQQSGPELVKPGASVKISCKASGYSFSSSWMNWVKQRPGKGLEWIGRISPGDGDTRYSGKFKGKATLTADKSSSTAYMQVTSLTSEDSAIYFCVRFLITSTRYVMDYWGQGTTVTVSS
VL: DVVMTQTPLSLPVSLGDQASISCRSSQSLVHSNGNTYLHWYLQKPGQSPKLLIYKVSNRFSGVPDRFSGSGSGTDFTLKISRVEAEDLGVYFCSQSTLVPPTFGGGTKLEIK
- Cell surface binding, Mock transfection, geometric mean fluorescent intensity [3]: 4,976 Clone_454
